Consider one molecule from patent publication US7037663B2, “Human zona pellucida protein 3 and uses thereof” (Eastern Virginia Medical School, priority 1998, dated 2006).

Where “and” joins values, the source holds several entries; their conditions need not be identical. Equal values may be shown once.

A short description of series [1]: Aggregation of purified glycoprotein on freezing. The class given is physicochemical. The following applies: freezing the purified product. From the text:
In the zona pellucida, ZP3 associates with ZP2 and ZP1 to form a network structure (Wassarman, 1988). This network structure prevents aggregation of these glycoproteins. However, in solution these glycoproteins tend to aggregate together. This phenomenon has been observed in several recombinant glycoproteins, including ZP3 (Champan and Barratt, 1997). In purifying rhZP3, we have avoided this problem by obtaining a highly purified product, and testing its biological activities within a week-period while maintaining the protein at 4° C. […] This problem becomes worse as larger amounts of the glycoprotein are trying to be produced. Different strategies are being looked into in order to produce and purify large amounts of biologically active rhZP3 in our laboratory.

Series [2] relates to human sperm. Description: Acrosome reaction of capacitated sperm by FITC/PSA with Hoechst 33258 viability stain, first series. The class given is cell-based. As for the experimental part: The purified rhZP3 was also applied to test its activity to induce human sperm acrosome reaction. The motile sperm obtained by swim-up procedure were allowed to capacitate in HTF/0.5% HSA for four hours at 37° C. in 5% CO2 in huminified air. The motile sperm concentration used to detect acrosome reaction was set at 2 million/ml. A series of 100 ul of capacitated sperm aliquots with different inducers were prepared in Eppendorf vials and cultured in the incubator in 95% air, 5% CO2, at 37° C. for 30 minutes. The test was conducted as follows: positive control: calcium ionophore A23187 (Sigma) at 5 μM; negative controls: 1) sperm culture medium alone, and 2) protein isolated from the culture media of non-transfected PA-1 cells (NT); test: rhZP3. Triple slides were made for each assay. Hoechst 33258 stain was used for determination of sperm viability. Fluorescein isothiocyanate conjugated Pisum sativum agglutinin (FITC/PSA) (Sigma) staining technique was employed to evaluate the acrosome reaction (Cross et al, 1986). Blind reading was required for evaluation and at least 100˜200 cells from 5 random fields were evaluated per spot on the slide. […] The results were expressed as percentage of acrosome-reacted spermatozoa in the total population counted (Cross, 1986).
In some experiments, Solubilized zona pellucida were used as control to test its function to induce sperm acrosome reaction. The solubilized zona pellucida were prepared according to Franken et al (1996). Ooplasma was removed using a small glass micropipette. A vigorous pipetting action would break their zona causing ooplasma to be spilled into surrounding medium. The chosen amount of zonae was transferred into an eppendorf tube and was centrifuged for 15 minutes at 300×g. Using a steromicroscope, the media were removed with pipette, making sure not to disturb zona. The final result was to remove maximum medium. A chosen volume (depending on the zona concentration needed) of 10 mM HCl was added. Under the microscopic vision, zona/HCl was pipetted up and down until all zona were dissolved. Then 10 mM NaOH of equal volume as the HCl was added and mixed well to obtain the stock zona solution.

The subject of series [3] is sperm-zona pellucida binding. The following applies: Dong et al 2000; cited from earlier work.
The nature of series [4]: Isoelectric focusing electrophoresis. Conditions: ampholytes pH 3-10 and pH 4-8. The class given is physicochemical. As for the experimental part:
For further biochemical analysis, isoelectric focusing electrophoresis was performed. Approximately five microgram of recombinant ZP3 was loaded into an isoelectrophoresis tube with ampholytes (pH 3-10) in a wide range, and ampholytes (pH 4-8) in a narrow range. The same amount protein sample isolated from the PA-1 cells without transfected with hZP3 cDNA was used as a control.

B1: rhZP3: recombinant human zona pellucida protein 3 with six-histidine tail, expressed in human ovarian PA-1 cells; secreted glycoprotein of approximately 65 Kd (protein)
chain: QPLWLLQGGASHPETSVQPVLVECQEATLMVMVSKDLFGTGKLIRAADLTLGPEACEPLVSMDTEDVVRFEVGLHECGNSMQVTDDALVYSTFLLHDPRPVGNLSIVRTNRAEIPIECRYPRQGNVSSQAILPTWLPFRTTVFSEEKLTFSLRLMEENWNAEKRSPTFHLGDAAHLQAEIHTGSHVPLRLFVDHCVATPTPDQNASPYHTIVDFHGCLVDGLTDASSAFKVPRPGPDTLQFTVDVFHFANDSRNMIYITCHLKVTLAEQDPDELNKACSFSKPSNSWFPVEGSADICQCCNKGDCGTPSHSRRQPHVMSQWSRSASRNHHHHHH
Take B1: the “aggregation on freezing (in words)” value in series [1] was “problems of aggregation of the glycoprotein as we attempted freezing the product”. Besides, the “increase of the percentage of acrosome-reacted sperm from control conditions” value in series [2] (30 ng/ml, 30 minutes pre-incubation) came to 150%. For the same molecule, the “% acrosome reacted-sperm” value in series [2] (NT 30 ng/ml, calcium ionophore 5 μM, rhZP3 30 ng/ml, solubilized zona 0.5 ZP/μl, 4 h capacitation, 30 min, mean (± SEM)) stood at 18.3%. Besides, the “range of maximal effect, ligand activity” value in series [3] is recorded as 30-1,000 ng/ml. Further, the “isoelectric point (PI)” value in series [4] is 4.60±0.05 and ~5.60; in series [4] (listed as recombinant human ZP3) it was 4.6±0.05.
